For one assay, the target named is T1, His-p53 wild-type (human, UniProt P04637 1-393).
T1 construct: also called His-tagged p53; WT p53; source: E. coli, purified (Ni-NTA agarose); not shown: His, N-terminal, kept
Nature of the assay: pull-down. The note with it: both partners purified.

Assay [1] deals with T2, FLAG-p53 wild type, from 293T cells (human, UniProt P04637 1-393).
T2 construct: also called FLAG-p53 (WT); p53 protein (WT); source: 293T, transfected, with or without ionizing radiation (20 Gy), purified on anti-FLAG antibody resin
As to the kind of experiment: pull-down. As to conditions: both partners purified.

The values below come from publication PMC2712087 (PLoS Pathogens, 2009).

B1: purified recombinant BZLF1 protein (natural protein)
chain: MMDPNSTSEDVKFTPDPYQVPFVQAFDQATRVYQDLGGPSQAPLPCVLWPVLPEPLPQGQLTAYHVSTAPTGSWFSAPQPAPENAYQAYAAPQLFPVSDITQNQQTNQAGGEAPQPGDNSTVQTAAAVVFACPGANQGQQLADIGVPQPAPVAAPARRTRKPQQPESLEECDSELEIKRYKNRVASRKCRAKFKQLLQHYREVAAAKSSENDRLRLLLKQMCPSLDVDSIIPRTPDVLHEDLLNF
notes: also called EBV BZLF1 protein; source: Hi-Five cells infected with recombinant baculovirus AcBZLF1, purified (extracted from nuclei with 0.6 M NaCl; purity more than 90%)
As to B1, the binding result (with His-p53 wild-type; in assay [1]) was “binds” each time.
